Data taken from paper PMC9714796, “Macrophage TGF-β signaling is critical for wound healing with heterotopic ossification after trauma” (JCI Insight, 2022).

B1: Transforming growth factor-β3 (TGF-β3) (ligand, UniProt P10600 301-412, looked up)
chain: ALDTNYCFRNLEENCCVRPLYIDFRQDLGWKWVHEPKGYYANFCSGPCPYLRSADTTHSTVLGLYNTLNPEASASPCCVPQDLEPLTILYYVGRTPKVEQLSNMVVKSCKCS
notes: TGF-β3 ligand used as SPR analyte
B2: TGF-βRII-Fc (muTGFbRII-mFc) (Fc fusion, UniProt Q62312 24-166, looked up)
chain: IPPHVPKSVNSDVMASDNGGAVKLPQLCKFCDVRLSTCDNQKSCMSNCSITAICEKPHEVCVAVWRKNDKNITLETVCHDPKLTYHGFTLEDAASPKCVMKEKKRAGETFFMCACNMEECNDYIIFSEEYTTSSPDLLLVIIQ

Key:
[1] = molecular target: B2; experiment: SPR; Biacore T100; TGF-βRII-Fc captured (~50 RU) by an anti-mouse Fc antibody amine-coupled to a CM5 chip; ligand injected at 0.013-10 nM (0.013-1.1 nM used for the fit); HBS-EP with 350 mM NaCl and 0.5 mg/mL BSA; 1:1 model with mass transport, KD = kd/ka; settings: both partners purified
[2] = molecular target: B1; experiment: cell-based or functional assay
[3] = molecular target: Transforming growth factor-β1 (TGF-β1) (UniProt P01137 279-390); experiment: cell-based or functional assay
Transforming growth factor-β1 (TGF-β1), sequence (P01137 279-390): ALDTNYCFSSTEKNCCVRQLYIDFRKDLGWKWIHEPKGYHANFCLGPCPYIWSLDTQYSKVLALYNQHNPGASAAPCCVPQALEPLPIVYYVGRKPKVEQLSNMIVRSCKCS

| Binder | Kd [1] | IC50 of TGF-βRII-Fc against TGF-β3 (270 pg/mL) signalling in A549 cells with the (CAGA)12 luciferase reporter [2] | IC50 of TGF-βRII-Fc against TGF-β1 (640 pg/mL) signalling in A549 cells with the (CAGA)12 luciferase reporter [3] |
| --- | --- | --- | --- |
| B1 | 0.0112 nM | – | – |
| B2 | – | 0.00446 nM | 0.0229 nM |
